Legend:
内源性的ROR2 (293T细胞) = molecular target: T1, 内源性的ROR2 (293T细胞) (UniProt Q01974 34-943); assay: immunoprecipitation from 293T cell lysate, blot with Santa Cruz ROR2 antibody sc-374174
T1 construct: Whole endogenous protein in cell lysate, used for immunoprecipitation; also called endogenous ROR2 protein of ROR2-positive 293T cells

带有His标签的人源的ROR2胞外端 = molecular target: T2, 带有His标签的人源的ROR2胞外端 (human, UniProt Q01974 34-403); assay: immunoblot, lysate of 293T-ROR2-KO cells transfected with His-tagged human ROR2ex, 5ug/ml
T2 construct: extracellular domain; Denatured cell lysate in an immunoblot; it is put last only for want of a statement; also called human ROR2ex; humanROR2ex; not shown: His tag

ROR2膜蛋白 = molecular target: T3, ROR2膜蛋白 (UniProt Q01974 34-943, limits assumed); assay: flow cytometry on T47D cells (ROR2 positive) against 231 cells (ROR2 negative), 10ug/ml
T3 construct: whole, on cells; Endogenous ROR2 of T47D cells and of cells from human patients; also called ROR2 on T47D cells; ROR2 on patient blood cancer cells and lymphoma PDX tumour cells

Measured: binding result

T1 sequence (Q01974 34-943 limits assumed): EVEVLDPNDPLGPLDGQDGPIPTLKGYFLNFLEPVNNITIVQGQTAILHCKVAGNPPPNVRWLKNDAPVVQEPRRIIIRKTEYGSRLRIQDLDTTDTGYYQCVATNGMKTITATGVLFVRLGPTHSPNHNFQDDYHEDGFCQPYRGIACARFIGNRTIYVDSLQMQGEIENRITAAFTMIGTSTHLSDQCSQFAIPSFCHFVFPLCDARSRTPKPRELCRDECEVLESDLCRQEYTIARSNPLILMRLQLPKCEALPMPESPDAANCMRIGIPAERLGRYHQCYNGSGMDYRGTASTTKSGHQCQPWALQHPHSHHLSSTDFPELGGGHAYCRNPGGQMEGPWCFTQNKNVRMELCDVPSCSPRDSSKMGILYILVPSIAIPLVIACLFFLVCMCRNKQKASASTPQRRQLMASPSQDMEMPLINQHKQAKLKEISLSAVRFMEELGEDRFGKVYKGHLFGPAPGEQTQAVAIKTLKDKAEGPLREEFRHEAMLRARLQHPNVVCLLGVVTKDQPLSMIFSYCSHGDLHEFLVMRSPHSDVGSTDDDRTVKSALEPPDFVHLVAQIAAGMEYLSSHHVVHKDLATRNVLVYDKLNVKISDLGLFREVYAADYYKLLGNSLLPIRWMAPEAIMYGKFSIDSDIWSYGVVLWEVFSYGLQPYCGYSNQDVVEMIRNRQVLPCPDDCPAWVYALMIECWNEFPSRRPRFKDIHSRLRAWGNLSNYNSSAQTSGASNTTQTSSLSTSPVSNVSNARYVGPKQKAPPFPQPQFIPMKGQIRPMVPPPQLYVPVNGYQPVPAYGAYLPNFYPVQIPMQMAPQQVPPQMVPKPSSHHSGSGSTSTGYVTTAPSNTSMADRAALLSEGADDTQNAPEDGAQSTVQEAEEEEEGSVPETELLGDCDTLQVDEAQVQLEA
T3 sequence (Q01974 34-943 limits assumed): as above
T2 sequence (Q01974 34-403): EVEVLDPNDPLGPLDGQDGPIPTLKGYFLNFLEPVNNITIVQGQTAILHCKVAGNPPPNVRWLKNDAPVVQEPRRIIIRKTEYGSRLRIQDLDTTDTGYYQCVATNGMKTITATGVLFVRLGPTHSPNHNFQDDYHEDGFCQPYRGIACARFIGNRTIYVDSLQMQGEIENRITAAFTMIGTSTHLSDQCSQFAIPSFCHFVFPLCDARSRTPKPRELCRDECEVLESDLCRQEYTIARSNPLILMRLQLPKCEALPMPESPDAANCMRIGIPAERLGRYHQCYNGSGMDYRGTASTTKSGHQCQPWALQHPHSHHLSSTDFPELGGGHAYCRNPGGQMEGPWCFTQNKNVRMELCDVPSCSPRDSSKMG

B1: A12嵌合抗体 (antibody, human IgG1, kappa, V domains shown)
VH: QVQLQQSGPELVKPGASVRMSCKAAGYTITSYLMHWVKQRPGQDLEWIGYINPYNDGTKYNEKFKDKATLTSDKSSSTAYMELSSLTSEDSAVYYCARSDVYYGVRFAYWGQGTLVTVSA
VL: DIVLTQSPAIMSASPGEKVTMTCSASSSVSYMHWYQQKSGTSPKRWIYDTSKLASGVPARFSGSGSGTSYSLTISSMEAEDAAIYYCQQWSSNPPTFGAGTKLELKR
notes: Chimeric antibody expressed in 293F cells and purified on Protein A; also called A12抗体; ROR2-A12
binds: all assays above

B2: B30嵌合抗体 (antibody, human IgG1, kappa, V domains shown)
VH: QVQLQQSGPELVKPGASVRMSCKAAGYTFTSYLIHWVKQRPGQDLEWIGYINPYNDGTKYNEKFKDKATLTSDKSSSTAYMELSSLTSEDSAVYYCARSDVYYGVRFAYWGQGTLVTVSA
VL: DIVLTQSPVIMSASPGEKVTMTCSASSSISYMYWYQQKPGSSPRLLIYDTSILASGVPVRFSGSGSGTSYSLTISRMEAEDAATYYCQQWSSYPFTFGSGTKLEIKR
notes: Chimeric antibody expressed in 293F cells and purified on Protein A; also called B30抗体; ROR2-B30
binds: all assays above

B3: B22嵌合抗体 (antibody, human IgG1, kappa, V domains shown)
VH: QVQLQQPGAALVKPGASVKLSCKASGYTFTNYWIQWMKQRPGQGLEWIGEINPSNGRTDYNEKFKNRATLTVDNSSTTAYMQLSSLTSEDSAVYYCANYRPGYWGQGTSVTVSS
VL: DIVMTQSQKFMSTSVGDRVSVTCKASQNVGTNVAWFQQKPGQSPKPLIYLASYRYSGVPDRFTGSGSGTDFTLTISNVQSEDLAEYFCQQYNSYPLTFGGGTNLEIKR
notes: Chimeric antibody expressed in 293F cells and purified on Protein A; also called B22抗体; SA120-2
binds: all assays above

From patent publication CN111378040A (UNIV SHENZHEN, dated 2020)
